Results published in patent publication US20130251640A1.

Target: trypsin (trypsin-EDTA 0.25%, Sigma-Aldrich)
Experiment: cell-based or functional assay

change in FITC fluorescence signal (dequenching): > 34 fold
Substance: PLL-FITC (poly-L-lysine conjugated with fluorescein isothiocyanate, FITC/PLL=10/1)
